Results on 40 sequences are retold here after the nanobody polyreactivity screen of Harvey et al. (2022).

The nature of this data set: yeast display, Sf9 membrane polyspecificity reagent, FACS + sequencing; frameworks hold sequencing errors. Summed up:
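Nanobodies from a synthetic yeast display library (Saccharomyces cerevisiae BJ5465), induced 36–48 hours with galactose, were stained 1 hour at 4 °C with 10% biotinylated, detergent-solubilized Sf9 membrane reagent, enriched on streptavidin microbeads, then FACS-sorted. Anti-HA (expression) and streptavidin (reagent binding) fluorescence set low and high (top ~1%) gates. Polyreactivity labels come from the gate of origin. Genes were colony-PCR amplified, MiSeq 2 × 250 sequenced and filtered by CDR length.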
Turning to “QVQLVESGGGLVLAGGSLRLSCAASGGTFARYAMGWYRQAPGKERELVAAISRGGSTNYADSVKGRFTISRDNAKNTVYLQMNSLKPEDTAVYYCAAGSRRAAWYDYSYPYGYWGQGTQVTVSS”, the “polyreactivity (PSR sort gate)” value is recorded as “high polyreactivity”.
The entry for “QVQLVESGGGLVQAGGSLRLSCAASGSIFWPYAMGWYRPAPGKERELVATISWNGGSTYYADSVKGRFTISRDNAKNTVYLQMNSLKPEDTAVYYCAAEVYFNQYGGMDYWGQGTQVTVSS” is “low polyreactivity”; for “QVQLVESGGVLVQAGGSLRLSCAASGSTFFLYMGWYRQAPGKERELVAAITVSGRSTYYADSVKGRFTISRDNAKNTVYLQMNSLKPEDTAVYYCNADWVLRYDYWGQGTQVTVSS” it is “low polyreactivity”; for “QVQLVESGGGLVQAGGSLRLSCAASGSIFYPYAMGWYRQAPGKERELVAAITWSGGDTYYADSVKGRFTISRDKAKYTDYLQMNSLKPEDTAVYYSAAEWNVSPYDYWGQGTQVTVSS” it is “low polyreactivity”.
The entry for “QVQLVESGGGLVQSGGSLRLSCAASGFTFGGYAMGWYRQAPAKERELVAAISQSGGRTYYADSVKGRFTISRDNAKITVYLQMNSLKPEDTAVYYCAKPSTTYYQRGDYWGQGTQVTVSS” is “high polyreactivity”; for “QVQLVESVGGLVQAGGSLRLSCSASGSTFTGYAMGWYRQARGNEREFVATITKRGGRTYYADSVKGRFTISRDNAKNTVYLQMNSLKPEDSAVYYCARDQGKLFVPYDYWGKGTQVTVSS” it is “high polyreactivity”; for “QVKLVESGRGLVQAGGSLRLSCAASGSIFAQNVMGWYRQAPGKERELVAAISYSGGTTYYADSVKGRFTISRDNAQNTVYLQMNSLKPEDTAVYYCAAEFGVYEYDYWGQGTQVTVSS” it is “low polyreactivity”.
Take “QVQLVESGGGLVQAGGSLRLSCAASGSIFRSYAMGWYRQAPGKERELVASISRRGGSTYYADSVKGRFTISRDNAKNTVYFQMNSLKPEDTAVYYCAAVRYNSRVSTTPSEMYYWGQGTLVTVSS”: the “polyreactivity (PSR sort gate)” value is recorded as “low polyreactivity”.
The result for “QVQLVESGGGLVQAGGSLRLSCAASGSTYYTYAMGWYRQAPGKERELVAAIRGRGGRTYYADSVKGRFTISRDNAKNTVYLQMNSLKPEDTAVYYCNADGYAYYRATTRFDYWGQGTQVTVSS” reads “high polyreactivity”; that for “QVQLVESGGGLVQAGGSLRFSCAASGRIYYNAMGWYRQAPGKERELVAAISGSGTRTYYADSVKGRFTISRDNAKNTVFLQMNSLKPEDTAVYYCNAKFFLAATTRYYYWGQGTQVTVSS”, “high polyreactivity”; that for “QVQLVESGGGLVQAGGSLRLSCAASGRTFRNYAMGWYRPAPGKERELDAGITDSGGSTFYADSVKGRFTISRDNAKNTVYLQMNSLKPADTAVYYCAAVYVPYYWLGRSRGLDYWGQGTQVTVSS”, “high polyreactivity”.
The entry for “QVQLVESGGGLVQAGGSLRLSCAASGITFNSYAMGWYRQAPGKERELVAAISWSGGSTYYADSVKGRFTISRDNAKNTVYLQMNSLKPEDTAVYYCNAEYRYYQKTPGRYTNVEYDYWGQGTQVTVSS” is “low polyreactivity”.
The result for “QVQLVESGGGLVQAGGSLRLSCAASGSIISSYAMGWYRQAPGKEREFVAAISSSGDSTYADSVKGRFTISRDNAKNTVYVQMNSLKPEDTAVFYCAVGGAGSDDYWGQGSQVTVSS” reads “low polyreactivity”; that for “QVQLVESGGGLVQAGGSLRLSCAASGFTFLSNDMGWYRQSPGKERELVAGINFSGDGTYYADSVKGRFTISRDNAKNPVYLQMNSLKPEDSAVYYCAAGWLPKYGYWGKGTQVTVSS”, “low polyreactivity”.
As to “QVQLVESGGGLVQAGGSLRLSCPASGITVTAYAMGWYRQAPGKERELVATINSTGITNYADSVKGRFTISRDNAKNTVYLQMNSLKPEDTAVYYCAADLMDSSSYDGMDYWGQGTQVTVSS”, the “polyreactivity (PSR sort gate)” value is “low polyreactivity”.
Take “QVQLVESGGGLVQAGGSLRLSCAASGRTFWPYAMGWYRQAPGKERELVAAITSDGSTTYADSVTGRFTISRDNAKNTVYLQMNSLTPEDTAVYYCAAYGYYYDQTIPMDYWGQGTQVTVSS”: the “polyreactivity (PSR sort gate)” value is “low polyreactivity”.
The result for “QVQLVESGGGLVQAGGSLRLSCAASGRTFTAYTMGWYRQAPGKERELVDSISSGVTYADSVKGRFTISRDNAKNTVYLQMNSLKPEDTAVYYCAARLWYVQGYVPYVHHRFDYWGQGTQVTVSS” reads “low polyreactivity”; that for “QVQLVESGGGLVQAGGSLRLSCAASGIFSRYAMGWYRQAPGKERELVAAISSGGSTYYADSVKGRFTISRDNAKNTVYLQMNSLKAEDTAVYYCAVKQRDKFAGGRNDYWGQGTQVTVSS”, “high polyreactivity”.
The result for “QVQLVESGGGLVQAGGSLRLSCAASGRTFDKYAMGCYRPAPGTQRELVAAINSSGGSTYYSDSVKGRFTISRDNEKNTVYLQMNSLKPEDTAFYYCAALGIGSYRRYSCYDYWGQGPQVTVSS” reads “low polyreactivity”; that for “QVQLVESGGGLVQAGGSLRLSCAASGSTFRYYAMGWYRQAPGKEREFVAAISWSGSSTYYADSVKGRFTISRDNAKNTVYLQMNSLKPEDTAVYYCAARYRYRSSSYDYWGQGTQVTVSS”, “high polyreactivity”.
The result for “QVQHVESGGGLGQAGGSLRLSCAASGIIFPRYKAWYRPAPGKDRELVAAIRWSSDDTNYADSVKGRFTISRDNAKNTVYLQMNSLKPEDTAVYYCAADSYYDRTIQFEFSARTYDYWVQGTQVTVSS” reads “low polyreactivity”; that for “QVQLVESGGGLVQAGGSLRLSCAASGFIFWAYAMGWYRLAPGKERELVAAITWNGGSTNYADSVKGRFTISRDNAKNTVYLQMNSLKPEDTAVYYCAVSRSLSFRYPGYYWGQGTQVTVSS”, “low polyreactivity”; that for “QVQLVESGGGLVQAGGSLRLSCAASGSTFYSYAMVWYRPARGPERELVAAITSGGRTYYADSVKGRFTISRDNAKNTVYLQMNCLKPEDTAVYYCSADLPVFGGYRSNRFGYWGQGTQVTVSS”, “high polyreactivity”.
For “QVQLVESGGGLVQAGGSLRLSCAASGRIFYRYAMGWSRQAPGKERELVASITTSGDSTYYADSVKGRFTISRDNAKNTVYLQMNSLKPEDTAVYYCAARSYRGRRYDYWGQGTQVTVSS”, the “polyreactivity (PSR sort gate)” value is given as “high polyreactivity”.
The entry for “QVQLVESGGGLVQAGGSLRLSCAASGRTFVRYAMGRYRQAPGKERELVAAISGDGASTYYADSVKGRFTISRDNAKNTVYLQMNSLKPEDPAVYYCNARSIRRYYYPDYDYWGQGTQVTVSS” is “high polyreactivity”.
The entry for “QVQLVESGGGLVQAGGSLRLSCAASGGTFVYYAMGWYRQAPGKERELVAAITSRGTSTYYADSVKGRFTISRDNAKNTVYLQMNSLKPEDTAVYYCAAGTPRGILRNSSYNYWGQGTQVTVSS” is “high polyreactivity”.
The entry for “QVQLVESGGGLVQAGGTLRFSCAASGFTFYVYAMGWYRQAPGKERELVAAISKSGGSTYYADSVKGRFTISRDNAKNTVYLQMNSLKPEDTAVYYCAVYDKRSGYRGGHRYNSWGQGTQVTVSS” is “high polyreactivity”; for “QVQLVESGGGLVQAGGSLRLSCAASGFIFGHYAMGWYRQAPGKERELVAAITRGGRTNYADSVKGRFTISRDNAKNTVYLQMNSLKPEDTAVYYCNALGKALYRSRFYYWGQGTQVTVSS” it is “high polyreactivity”; for “QGQLVESGGGLVQGGGSLRFSCAASGITFQRYALGGYRQAPGKDRALVAAIRRSGTSTYYADSVKGRFPITRHNAKNPVHLQMNSLKPEDTAVKYCAAGSYPTEGSKYGYWGQGTQVTGSS” it is “high polyreactivity”.
In the case of “QVQLVESGGGLVQAGGSLRLSCAASGGTFGSYARGWYRQAPGNEREFVAAIRRGTSTYYADSVQGRFTISRDNAKNTVYLQMNRLKPEDTEVYYCAATPQAHSERYYYQRKYDYWGQGTQVTVSS”, the “polyreactivity (PSR sort gate)” value is given as “low polyreactivity”.
Consider “QVQLVDSGGGLVQAGGSLRLSCAASGSILESNVMGWYRQAPGKERELVASISSSGDSTYADSVKGRFTISRDNAKNTVYLQMNILKPEYTAVYYCAADRWYWTYALYYWGQGTQVTVSS”, for which the “polyreactivity (PSR sort gate)” value is given as “low polyreactivity”.
The result for “QVQLVESGGCLVQAGGSLRLSCAASGYIFQWYDMGWYRPAPGKERELVAAISVTTGSTYYADSVKGRFTISRDNAQKTVYLQMNSLKPEDTAVYYCAAVSWYRHDMYYWGHGTQVTVSS” reads “low polyreactivity”; that for “QVQLVESGGGLDQAGGSLRLICAASGIIFASNAMGWYRQAPGKERELVATITGSVAGTYYADSVKGRFTISRDNAKPTVYLQMNSLKPEDTAVYDCAAKRGWNVAGYDYWGQRTQVTVSS”, “low polyreactivity”; that for “QVQLVESGGGLVQAGGRLRLSCAASGSTFGLNAMGRYRHAPGKEREFVASINFNDGSTYYADSVKGRFTISRDNAKNTVYLRMNSLKPEDTAVYYCAVELWWKWPFYYWGQGTQVTVSS”, “high polyreactivity”.
The entry for “QVQLVESGGGLVQAGGSLRLICAASGFTFSWYVMGWYRQAPGKERELVATITNRGGSTYYADSVKGRFTISRDTAKNTVYLQMNSLKPEDTAVYYCAARKKGSRVGYDYCGQGTQVTVSS” is “high polyreactivity”; for “QVQLVESGGGLVQAGGSLRLSCAASGSIFARYAMGWYRQAPGKERELVAALSGSGASTYYADSVKGRFTISRDNAKNTVYLQMNSLKPEDTAVYYCARPFLRRPTYRFETGYGYWGQGTQVTVSS” it is “high polyreactivity”.
The entry for “QVQLVESGGGLVQAGGSLRLSCAASGSTFWVYAMGWYRQAPGKERELVATISRGGSTNYADSVKGRFTISRDNAKNTVYLQMNSLKPEDTAVYYCAAPRFYGYGYEYCGQGTQVTVSS” is “low polyreactivity”; for “QVQVVESGGGLVKAGGSLRLSCDASGSTFRDYVMGWYRQAPGKERELVAAITGSGSSTYYADSVKGRFTISRDNAKNSVYLQMNSLKPEDTAVYYCAATWVVSYRVNRSYYWGQGTQVTVSS” it is “low polyreactivity”; for “PVQIVESGGGLVQAGGSLRLSCAASGFTFYSNAMGWYRQAPGKEWEMVAAISFSGTRTYYADSVKGRFTISRDNEKNTVYLQMNSLKPEDTAVYYCNAVAYNYPRTYDYWGQGTQVTVSS” it is “high polyreactivity”.
Regarding “QVQLVESGGGLVQAGGSLRLSCAASGSTFYWYSMGWYRQAPGKERELVAAITSTGGSTYADSVKGRFTISRDNAKNTVYLQMNSLKPEDTAVYYCNVDTSSPSRRDYDYWGQGTQVTVSS”, the “polyreactivity (PSR sort gate)” value is “low polyreactivity”.
